The results in this text go back to patent US20230349919A1.

Test [1] deals with Ole e 1 (olive) (UniProt P19963). Nature of the test: barcoded antigen sequencing of single IgE PCs with trapped IgE [cont.].
Test [2] has the same target. Nature of the test: barcoded antigen sequencing of single IgE PCs with trapped IgE.
In test [3] the target is human IL-4Rα (hIL-4Rα) monomeric protein (human) (UniProt P24394). Nature of the test: barcoded-antigen count on source cell (scRNA-seq).
For test [4], the target named is human IL-6Rα (hIL-6Rα), barcoded negative control antigen (human) (UniProt P08887). Nature of the test: barcoded-antigen count on source cell (scRNA-seq).
In test [5] the target is Der p 2 (house dust mite) (UniProt P49278). As to the kind of experiment: antigen specificity score against Ole e 1 from barcode counts of single IgE PCs [cont.].
Test [6] concerns the target Der p 1 (house dust mite) (UniProt P08176). The test is described as above.
Test [7] addresses Der f 1 (house dust mite) (UniProt P16311). The test is described as above.
The target in test [8] is Der p 2 (house dust mite) (UniProt P49278). Nature of the test: barcoded antigen sequencing of single IgE PCs with trapped IgE [cont.].
Test [9] concerns the target Der p 1 (house dust mite) (UniProt P08176). Described as above.
Test [10] has as its target Der f 1 (house dust mite) (UniProt P16311). The description is as above.
For test [11], the target named is Der p 2 (house dust mite) (UniProt P49278). As to the kind of experiment: barcoded antigen sequencing of single IgE PCs with trapped IgE.
In test [12] the target is Der p 1 (house dust mite) (UniProt P08176). The test is described as above.
Test [13] concerns the target Der f 1 (house dust mite) (UniProt P16311). Described as above.
For test [14], the target named is Der p 1 (house dust mite) (UniProt P08176). As to the kind of experiment: centered log-ratio of barcode count.
The target in test [15] is Der f 1 (house dust mite) (UniProt P16311). Nature of the test: centered log-ratio of barcode count.
For test [16], the target named is Der p 1 (house dust mite) (UniProt P08176). As to the kind of experiment: barcoded-antigen count on source cell.
Test [17] addresses Der f 1 (house dust mite) (UniProt P16311). As to the kind of experiment: barcoded-antigen count on source cell.
Test [18] addresses Der p 1 (house dust mite) (UniProt P08176). Nature of the test: barcode rank score against control Ole e 1.
Test [19] deals with Der f 1 (house dust mite) (UniProt P16311). Nature of the test: barcode rank score against control Ole e 1.

Chain of Der p 1 (house dust mite) (P08176 99-320 limits assumed): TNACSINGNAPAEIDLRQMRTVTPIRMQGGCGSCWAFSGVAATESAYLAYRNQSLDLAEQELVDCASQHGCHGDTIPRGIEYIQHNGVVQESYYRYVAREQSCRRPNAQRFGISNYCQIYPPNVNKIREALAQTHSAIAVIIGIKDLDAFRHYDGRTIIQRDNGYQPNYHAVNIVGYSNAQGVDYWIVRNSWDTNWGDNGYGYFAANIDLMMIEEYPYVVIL
Chain of Der p 2 (house dust mite) (P49278 18-146 limits assumed): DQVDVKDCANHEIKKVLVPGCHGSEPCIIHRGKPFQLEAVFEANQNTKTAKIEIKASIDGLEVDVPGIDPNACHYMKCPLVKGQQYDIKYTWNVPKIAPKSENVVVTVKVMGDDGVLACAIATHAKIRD
Chain of Der f 1 (house dust mite) (P16311 99-321 limits assumed): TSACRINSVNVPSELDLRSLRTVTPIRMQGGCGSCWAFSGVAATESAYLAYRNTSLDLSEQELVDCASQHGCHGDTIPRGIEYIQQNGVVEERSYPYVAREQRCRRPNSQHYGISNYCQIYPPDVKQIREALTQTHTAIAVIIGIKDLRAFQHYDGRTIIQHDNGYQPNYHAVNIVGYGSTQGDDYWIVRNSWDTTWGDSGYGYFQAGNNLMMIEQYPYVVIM
Chain of human IL-6Rα (hIL-6Rα), barcoded negative control antigen (human) (P08887 20-358 limits assumed): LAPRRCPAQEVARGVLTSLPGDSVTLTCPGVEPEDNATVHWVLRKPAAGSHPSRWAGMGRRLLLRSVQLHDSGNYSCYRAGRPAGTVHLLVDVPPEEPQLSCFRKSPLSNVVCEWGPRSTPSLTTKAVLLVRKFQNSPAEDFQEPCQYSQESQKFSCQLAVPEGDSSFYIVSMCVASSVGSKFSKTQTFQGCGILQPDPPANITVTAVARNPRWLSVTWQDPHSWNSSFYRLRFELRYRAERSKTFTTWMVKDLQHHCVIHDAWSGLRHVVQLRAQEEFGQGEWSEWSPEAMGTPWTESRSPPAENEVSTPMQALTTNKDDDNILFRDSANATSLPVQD
Chain of Ole e 1 (olive) (P19963 whole entry): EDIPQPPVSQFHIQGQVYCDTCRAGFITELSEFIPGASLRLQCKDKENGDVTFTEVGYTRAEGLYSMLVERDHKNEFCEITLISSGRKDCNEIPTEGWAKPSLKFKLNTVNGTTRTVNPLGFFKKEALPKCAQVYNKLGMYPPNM

B1: Candidate ID 13 (antibody, V domains shown)
VH: QAYLQQSGAELVRPGASVKMSCKASGYTFISYNMHWVKQTRRQGLEWIGAIYPGNGDTSYNQKFKGKATLTVDKSSSTAYMQLSSLTSEDSAVYFCARWDYYGSSYGAYWGQGTLVTVSA
VL: DIQMTQSPASLSVSVGETVTITCRASENIYSNLAWYQQKQGKSPQLLVYAATNLADGVPSRFSGSGSGTQYSLKINSLQSEDFGSYYCQHFWGTPWTFGGGTKLEIK
As for B1, the Normalized Barcode Count with Ole e 1 (olive) [1] is -0.434. For the same molecule, the Raw Antigen Barcode Count in the test with Ole e 1 (olive) [2] came out at 1.

B2: Table 1 Line # 48 antibody (SP_Plasma_cell) (antibody, human IgG4, V domains shown)
VH: EVQLVESGGVLVQPGRSLRLSCAASGFTFDDFAMHWVRQAPGKGLEWVSGISWNGNSIGYADSVKGRFTISRDNAKNSLYLQMNSLRTEDTALYYCAKDTSSWSYYYGMDVWGQGTTVTVSS
VL: DIQMTQSPSSLSASVGDRVTITCRASQGIRNDLGWYQQKPGKAPKRLIYAASNLQSGVPSRFSGSGSGTEFTFTISSLQPEDFATYYCLQHNSYPYTFGQGTKLEIK
As to B2, the REGN560.L15 ab raw in test [3] turned out to be 1240 counts. The REGN78.L15 ab raw in test [4] was determined as 17 counts.

B3: Candidate ID 9 (antibody, V domains shown)
VH: EVQLQQSGPELVKPGASVKISCKASGYTFTDYYMNWVKQSHGKSLEWIGDINPNNGGTSYNQKFKGKATLTVDKSSSTAYMELRSLTSEDSAVYYCAYGPPRGPPWFAYWGQGTLVTVSA
VL: DIVLTQSPASLAVSLGQRATISCRASKSVSTSGYSYMHWYQQKPGQPPKLLIYLASNLESGVPARFSGSGSGTDFTLNIHPVEEEDAATYYCQHSRELPWTFGGGTKLEIK
Take B3: the Antigen Score amounted to 0.858 in test [5], 0.775 in [6] and 0.765 in [7]. Moreover, the Normalized Barcode Count in test [8] was 1.62; in test [9], 0.981; in the test with Ole e 1 (olive) [1], 0.029; in test [10], 0.82. Moreover, the Raw Antigen Barcode Count in test [11] was found to be 46; in [12] it was 16; with Ole e 1 (olive) [2], 1; in test [13], 15.

B4: IgE mAb 13_2 (antibody, V domains shown)
VH: EVQLQQSGPELVKPGASVKISCKASGYTFTDYYMNWVKQSHGKSLEWIGDINPNNGGTSYNQKFKGKATLTVDKSSSTAYMELRSLTSEDSAVYYCAYGPPRGPPWFAYWGQGTLVTVSA
VL: DIVLTQSPASLAVSLGQRATISCRASKSVSTSGYSYMHWYQQKPGQPPKLLIYLASNLESGVPARFSGSGSGTDFTLNIHPVEEEDAATYYCQHSRELPWTFGGGTKLEIK
With B4, in test [14], the Derp1 ab clr worked out at 0.981. Besides, the Derf1 ab clr in [15] was 0.82. This molecule returned a Derp1 ab raw in test [16] of 16 counts. Further, in test [17], the Derf1 ab raw amounted to 15 counts. Further, the Derp1 ab rank in test [18] was found to be 0.775. The molecule further gave a Derf1 ab rank in [19] of 0.765.

B5: Candidate ID 21 (antibody, V domains shown)
VH: QVQLQQSGPELVKPGASVKISCKAPGNAFSYSWMNWVKQRPGKGLEWVGRIYPGDGDTNYNGKFMGKATLTADKSSNTAYIQLSSLTSEDSAVYFCARSGGGTLYWYFDVWGTGTTVTVSS
VL: DIVMTQSPSSLALSVGQKVTMNCRSSQSLLNSFNQKNYLAWFQQKPGQSPRLLIYFASTRESGVPDRFIGSGSGTDFTLTISSVQAEDLADYFCQQHYNTPLTFGAGTTLELK
B5 had a Normalized Barcode Count with Ole e 1 (olive) [1] of 0.826. This molecule also registered a Raw Antigen Barcode Count with Ole e 1 (olive) [2] of 4.

B6: Table 1 Line # 22 antibody (SP_B_cell) (antibody, human IgG4, V domains shown)
VH: EVQLVESGGGLVQPGRSLRLSCAASGFTFDDYAMYWVRQIPGKGLEWVSGITWNSGSIGYAGSVQGRFTISRDNAKNSLYLQMNSLRVEDTALYYCAKDIGGSYLGFDYWGQGALVTVSS
VL: ETVLTQSPGTLSLSPGERVTLSCRASQSVSSTYLAWYQQKPGQAPRLLIYGASNRATGIPDRFSGSGSGTDFTLTISRLEPEDFAVYYCQQYGSSYTFGQGTKLEIK
On to B6, for which the REGN560.L15 ab raw in [3] worked out at 14000 counts. In addition, in test [4], the REGN78.L15 ab raw was found to be 5 counts.

B7: Candidate ID 16 (antibody, V domains shown)
VH: EVHLQQSGPDLVKPGASVMISCQASGYSFTAYYINWVKQSPEKSLEWIGEINPGSGGVIYNRKFEAKATLIVDKSSNTAFMLLTRLTSEDSAIYYCARKGFYQFDYWGQGTTLTVSS
VL: SVVMTQIPKFLVVSAGDRVTITCKASQSVNDGVFWYQQKTGQSPKLVIYHTSNRYTGVSDRFTGSGYGTEFTFTISAVQSEDLAIYFCQQDYTSPLTFGGGTRLEIK
In the test with Ole e 1 (olive) [1], B7 came in with a Normalized Barcode Count of 0.603. The same molecule gave a Raw Antigen Barcode Count with Ole e 1 (olive) [2] of 3.

B8: Table 1 Line # 30 antibody (SP_B_cell) (antibody, human IgG4, V domains shown)
VH: EVQLVESGGGMVQPGRSLRLSCAASGFTFDDYAMHWVRQAPGKGLEWVSGIKWNGGNIGYADSVKDRFTISRDNAKNSLFLQMNSLRAEDAALYSCAKDIGGSQYALDVWGQGTTVTVSS
VL: DIQMTQSPSSLSASVGDRVTITCRASLSIGSYLNWYQKKPGKAPKLLIFVASSLQGGVSSRFSGSGSGTDFTLTISSLQPEDFATYYCQQTYSTPFTFGPGTKVDIK
For the molecule B8, the REGN560.L15 ab raw in test [3] is 9180 counts. Further, the REGN78.L15 ab raw in [4] was 179 counts.

B9: Candidate ID 7 (antibody, V domains shown)
VH: QVLLKESGPGLVAPSQSLSITCTVSGFSLTSYGVSWVRQPPGKGLEWLGVIWGDGNTDYHSALISRLSIRKDNSKSQVFLKLNSLQTDDTATYYCAIGSPFAYWGQGTLVTVSA
VL: DVLMTQTPLSLPVSLGDQVSISCRSSQNIVHSTGNTYLEWYLQKPGQSPKLLIFKVSNRLSGVPDRFSGSGSGTDFTLNISRVEAADLGIYSCFQGSHVPFTFGSGTKLEIK
For the molecule B9, the Antigen Score is 0.837 in test [5], 0.89 in test [6] and 0.97 in test [7]. Moreover, the Normalized Barcode Count is 0.655 in test [8], 0.862 in test [9], -1.13 in the test with Ole e 1 (olive) [1] and 1.18 in [10]. For the same molecule, the Raw Antigen Barcode Count in [11] was 22; in test [12] it was 29; with Ole e 1 (olive) [2], 0; in [13], 32.

B10: Table 1 Line # 47 antibody (SP_Plasma_cell) (antibody, human IgG4, V domains shown)
VH: ELQLVESGGGLVQPGRSLRLSCAASGFPFDAYAMHWVRQAPGKGLQWVSGIRWNGGNIDYVDSVKGRFTISRDNAKNSLYLQLNSLRSEDTALYYCAKDLGGSHYALDVWGQGTMVTVSS
VL: DIQMTQSPSSLSASVGARVTITCRASQSINNDLNWYQQKPGKAPKFLIYAASSLQSGVPSRFSGRGSGTDFTLTIRSLQPEDFAVYYCQQTYSSPFTFGPGTKVDLK
With B10, the REGN560.L15 ab raw in [3] came out at 1520 counts. The same molecule showed an REGN78.L15 ab raw in test [4] of 6 counts.

B11: Table 1 Line # 33 antibody (SP_B_cell) (antibody, human IgG4, V domains shown)
VH: EVQLLESGGGLVQPGGSLRLSCAASRFTFSNYEMNWVRQAPGKGLEWLSYINTSGTTIYYADSVKGRFTISRDNAKNSLYLQMNSLRAEDTAVYYCARVNWNSDAFDIWGQGTMVTVSS
VL: EIVMTQSPATLSVSPGERATLSCRASQIVGSNLAWYHQKPGQAPRLLIYSASTRATGIPARFSGSGSGTEFTLTISSLQSEDFAVYYCQQYNNWPPFTFGPGTKVDIK
For the molecule B11, the REGN560.L15 ab raw in test [3] was 7340 counts. In test [4], this molecule displayed an REGN78.L15 ab raw of 106 counts.
